Each block holds one binder with its values, some of them ahead of it.
Columns and labels:
[1] = target: T1, C-terminally FLAG-tagged mouse Gas6 recombinant protein (mGas6-F) (mouse, UniProt Q61592 28-674, limits assumed, gamma-carboxylated glutamic acid residues in the Gla domain (producer cells co-express rat VKOR and human GGCX); positions not given); experiment: competition ELISA: mAxl-mFc coated; mGas6-F at 50 ng/mL final premixed with the antibody; bound Gas6-F detected with anti-FLAG M2-HRP; blocked partner mAxl-mFc (Examples 5(4) and 7) [C]
T1 construct: also called mouse Gas6-F
T1 sequence (looked up): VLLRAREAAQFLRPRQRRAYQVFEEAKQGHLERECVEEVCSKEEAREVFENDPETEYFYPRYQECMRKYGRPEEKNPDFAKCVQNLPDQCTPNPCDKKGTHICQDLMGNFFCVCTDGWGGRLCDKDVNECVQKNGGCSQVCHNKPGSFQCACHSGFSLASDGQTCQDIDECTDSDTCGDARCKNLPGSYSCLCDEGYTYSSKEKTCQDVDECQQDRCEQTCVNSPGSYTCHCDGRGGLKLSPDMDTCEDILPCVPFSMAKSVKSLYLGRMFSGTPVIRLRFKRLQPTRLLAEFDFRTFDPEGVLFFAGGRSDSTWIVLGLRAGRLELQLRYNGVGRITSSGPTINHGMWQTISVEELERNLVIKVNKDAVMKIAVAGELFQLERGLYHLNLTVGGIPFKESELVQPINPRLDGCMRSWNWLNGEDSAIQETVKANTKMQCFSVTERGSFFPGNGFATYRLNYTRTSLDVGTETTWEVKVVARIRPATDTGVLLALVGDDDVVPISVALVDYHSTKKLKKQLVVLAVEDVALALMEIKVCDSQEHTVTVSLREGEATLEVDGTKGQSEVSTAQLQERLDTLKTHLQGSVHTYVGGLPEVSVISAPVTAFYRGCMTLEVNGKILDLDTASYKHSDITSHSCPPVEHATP

[2] = target: T2, C-terminally FLAG-tagged cynomolgus monkey Gas6 recombinant protein (cGas6-F) (cynomolgus monkey, UniProt Q14393 31-678 (human entry), gamma-carboxylated glutamic acid residues in the Gla domain (producer cells co-express rat VKOR and human GGCX); positions not given); experiment: ELISA: cGas6-F (1 µg/mL) captured on coated anti-FLAG M2 antibody; biotinylated test antibody; streptavidin-HRP/TMB; absorbance 450-570 nm, N=2 (Example 6) [B]
T2 construct: also called cynomolgus monkey Gas6-F; monkey Gas6-F
T2 chain: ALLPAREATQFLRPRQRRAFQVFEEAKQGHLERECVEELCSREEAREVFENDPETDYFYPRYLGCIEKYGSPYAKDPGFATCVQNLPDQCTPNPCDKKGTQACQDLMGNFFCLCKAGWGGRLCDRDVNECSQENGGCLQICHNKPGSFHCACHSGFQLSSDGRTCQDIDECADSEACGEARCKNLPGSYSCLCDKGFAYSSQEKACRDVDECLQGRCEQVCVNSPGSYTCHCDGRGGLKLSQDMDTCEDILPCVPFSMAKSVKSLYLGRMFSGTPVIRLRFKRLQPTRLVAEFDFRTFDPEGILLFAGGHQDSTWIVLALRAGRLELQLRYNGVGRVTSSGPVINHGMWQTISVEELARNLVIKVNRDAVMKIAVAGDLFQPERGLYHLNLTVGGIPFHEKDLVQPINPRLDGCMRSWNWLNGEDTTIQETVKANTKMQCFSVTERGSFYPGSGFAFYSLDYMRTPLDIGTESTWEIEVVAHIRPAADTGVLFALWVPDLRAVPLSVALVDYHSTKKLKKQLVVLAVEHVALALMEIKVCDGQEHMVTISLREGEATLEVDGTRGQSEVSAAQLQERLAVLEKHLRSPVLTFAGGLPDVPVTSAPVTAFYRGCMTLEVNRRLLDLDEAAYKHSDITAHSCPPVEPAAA
Procedure: First, 2 μg/mL anti-FLAG antibody [Monoclonal ANTI-FLAG M2 antibody produced in mouse (manufactured by Sigma-Aldrich Co. LLC) diluted with PBS (manufactured by Nacalai Tesque, Inc.)] was dispensed at 50 μL/well to a 96-well plate for ELISA (manufactured by Nalge Nunc International), and the plate was left standing overnight at 4° C. for adsorption. After removal of the immobilization solution, 1% BSA-PBS (manufactured by Nacalai Tesque, Inc.) was added thereto at 300 μL/well, and the plate was left standing at room temperature for 1 hour for blocking and washed five times with Tween 20-PBS (manufactured by Wako Pure Chemical Industries Ltd.).
Each antibody solution was dispensed thereto at 50 μL/well, and the plate was left standing at room temperature for 1 hour. This plate was washed five times with Tween 20-PBS. Then, Streptavidin HRP Conjugate (manufactured by R&D Systems, Inc.) diluted 200-fold with 1% BSA-PBS was dispensed thereto at 50 μL/well, and the plate was left standing at room temperature for 1 hour. This plate was washed five times with Tween 20-PBS, and TMB (manufactured by Sigma-Aldrich Co. LLC) was added thereto at 50 μL/well and reacted. […] The absorbance at a sample wavelength of 450 nm and a reference wavelength of 570 nm (450 nm-570 nm) was measured using a plate reader.

IC50 (read off the curve) [1]: ~0.09 µg/mL | EC50 (read off the curve) [2]: ~0.004 µg/mL
B1: anti-human Gas6 mouse monoclonal antibody KM5320 (KM5320-mKG1 antibody) (antibody, V domains shown)
VH: QIQLVQSGPELKKPGETVKISCKASGYTFTNYGMNWVKQAPGKGLKWMGWINTETGEPTYSDDFKGRFAFSLETSATTAYLQINNLRNEDMATYFCAREDGYYGTLDYWGQGTSVTVSS
VL: SIVMTQTPKFLLVSAGDRVTITCKASQSVSNDVAWYQQKPGQSPKVLIYYASNRYTGVPDRFTGSGYGTDFTFTISTVQAEDLAVYFCQQDYSSPWTFGGGTKLEIK
notes: Hybridoma-derived mouse IgG1, kappa; also called KM5320 antibody

IC50 (read off the curve) [1]: ~0.03 µg/mL | EC50 (read off the curve) [2]: ~0.004 µg/mL
B2: anti-human Gas6 mouse monoclonal antibody KM5321 (KM5321-mKG1 antibody) (antibody, V domains shown)
VH: QIQLVQSGPELKKPGETVKISCRASGYTFTNYGMNWVKQAPGKGLKWMGWINTNTGEPTYTEEFKGRFAFSLETSATTAYLQINDLKNEDTATYFCARDEGWFVYWGQGTLITVSA
VL: ETTVTQSPASLSVATGEKVTIRCITSTDIDDDMNWYQQKPGEPPKLLISEGNTLRPGVPSRFSSSGYGTDFVFTIENTLSEDVADYYCLQTDSVPLTFGAGTKLELK
notes: Hybridoma-derived mouse IgG1, kappa; also called KM5321 antibody

Reference: patent US20180339041A1 (Kyowa Kirin, published 2018)
